B1: Hammerhead Ribozyme (parent)
chain: ACCGGAUGUGCUUUCCGGUCUGAUGAGUCCGUGAGGACGAAACAG

Variants of: B1
Test: self-cleavage, relative activity (ratio to wild type); higher = more cleavage; co-transcriptional

Variant | self-cleavage
ACCGGAUGUGGUUUCCGGUCUAAUGAGUCCGUGAGGACGAAACAG [C11G G22A] | 0.304
ACCGGAUGUGCUUUCCGGUCUGAUGAGUCCGUGAGGAUGGAACAG [C38U A40G] | 0.37
ACCGGUUGUGCUUUCUGGUCUGAUGAGUCCGUGAGGACGAAACAG [A6U C16U] | 0.655
ACCGGAUUUGCUUUCCGGUCUGAUGAGUCCGUGAGGACAAAACAG [G8U G39A] | 0.395
ACCGGAUGUGCUUUCCGGUAUGAUAAGUCCGUGAGGACGAAACAG [C20A G25A] | 0.309
ACGGGAUGUGCUUUCCGGUCUGAUGAGUCCGGGAGGACGAAACAG [C3G U32G] | 0.36
ACCGGAUGUGCUGUCCGGUAUGAUGAGUCCGUGAGGACGAAACAG [U13G C20A] | 0.374
ACCGGAUGUGUUUUCCGGUCUGAUGAGUCUGUGAGGACGAAACAG [C11U C30U] | 0.736
ACCGGAUGUGCUUUCCGGUGUGAUGAGUCCAUGAGGACGAAACAG [C20G G31A] | 0.319
ACCGGAUGUGCUUUCCGGGCUGAUGAGUCCGUGAGGACGAAAUAG [U19G C43U] | 0.336
ACCGGAUGUGCUUUCCGGUCUGAUGACUCCGUGAGGACGAAACUG [G27C A44U] | 0.445
ACCGGAUGUGCUUUCCGGUCUGAUGAGUCCGUGAGAACAAAACAG [G36A G39A] | 0.337
ACCUGAUGUGCUUUCCGGUCUGAUGAGUCCGUGACGACGAAACAG [G4U G35C] | 0.326
ACCGGAUGUGCUUUCCGGUAUGAUGAGUCCGUGAGGACGACACAG [C20A A41C] | 0.388
ACCGGAUGUGCUUUCCGGUCUGAUGAGACAGUGAGGACGAAACAG [U28A C30A] | 0.376
ACCGGAUGUGCUUUCCGGUCUGAUGAGUCCGUGACGACGAACCAG [G35C A42C] | 0.283
ACCGGAUGUGCUUUCCGGUAUGAUGAGUCUGUGAGGACGAAACAG [C20A C30U] | 0.498
ACCGGAUGUGCUUUCCGGUCUUAUGAGUCCGUCAGGACGAAACAG [G22U G33C] | 0.363
ACCGGAUGUGCUUUCCGGCCUGAUGAGUCCGUGAGGACGAAGCAG [U19C A42G] | 0.279

Variant | self-cleavage
AACGGAUGUGCUUUCCUGUCUGAUGAGUCCGUGAGGACGAAACAG [C2A G17U] | 0.365
ACCGGAUGUUCUUUCCGGUCUGAUUAGUCCGUGAGGACGAAACAG [G10U G25U] | 0.314
ACCGGAUGUGCUUUCCGGUCUGAUGAGUCCGCGAGGACGAUACAG [U32C A41U] | 0.474
ACCGGAUGUGCUUUCCGGUCUGAUGAGUCCGGGAGGUCGAAACAG [U32G A37U] | 0.46
ACCGGAUGUGCUUUCCGGUCUGAUGAGGCCCUGAGGACGAAACAG [U28G G31C] | 0.987
ACCGGAUGUGCUUUCCGGUCUGAUGAGUCCGUGAGCACUAAACAG [G36C G39U] | 0.325
ACCGGAUGUGCUUUCCGUUCUGAUGAGUCCGUGAGGACGAAGCAG [G18U A42G] | 0.37
ACCGGAUGUGAUUUCCGGUCUGAUGAGUCCGUGAGGAGGAAACAG [C11A C38G] | 0.881
ACCGGAUGUGCUUUCCGGUCUGAUGAGUCCGUGGGGGCGAAACAG [A34G A37G] | 0.649
ACCGGAAGGGCUUUCCGGUCUGAUGAGUCCGUGAGGACGAAACAG [U7A U9G] | 1.32
ACCGGAUGUGCUUUACGGUCUGAUGAGUCCGUGAGGACGAUACAG [C15A A41U] | 0.287
ACCGGAUGUGCUUUCAGGUCUGAUGAGUCCGCGAGGACGAAACAG [C16A U32C] | 1.09
ACCGGAUGUGCUUUCCGGUCUGAUGAGUCCGUGAGGACGACACUG [A41C A44U] | 0.3
ACCGGAUGUGCUUUCCGGACUGAUGAGUCCGUGAGGACGAAACAA [U19A G45A] | 0.354
ACCGGAUGUGCGUUCCGGUCUGAUGAGUCCGUGAGGGCGAAACAG [U12G A37G] | 1.02
ACCGGAUGUGCUUUCCGGUCUGAUGAGUCCGGGAGGACGAAACGG [U32G A44G] | 0.898
ACCGGAUGUGCUUUCCGGUCUGAUGAGUCCGUAAGGACGAGACAG [G33A A41G] | 0.384
ACCGGAUGUGCUUUCCGGCCUGAUGAGUCCGUGAGAACGAAACAG [U19C G36A] | 0.475
ACCGGAUGAGCUUGCCGGUCUGAUGAGUCCGUGAGGACGAAACAG [U9A U14G] | 1

Variant | self-cleavage
ACCGGAUGUGCUUUGCGGUCUGAUGAGUCCGUGAGGACUAAACAG [C15G G39U] | 0.301
ACCGGAUGUGAUUGCCGGUCUGAUGAGUCCGUGAGGACGAAACAG [C11A U14G] | 1.27
ACCGGAUGUGCUUUCCGGUCUGAUGAGUCCGUCAGGACAAAACAG [G33C G39A] | 0.332
ACCAGAUGUGCUUUCCGGUCUGAUGAGACCGUGAGGACGAAACAG [G4A U28A] | 0.364
ACCGGAUGUGCUUUCCGGUUUGAUGAGUCCGUGAGGACGAAACAU [C20U G45U] | 0.387
ACUGGAUGUGCUUUCCGGUCUGAUGAGUCCGUGAGGACGAAACAU [C3U G45U] | 0.599
ACCGGAUGUGCUUUCCGUUCUGAUGAAUCCGUGAGGACGAAACAG [G18U G27A] | 0.567
ACCGGAUGUCGUUUCCGGUCUGAUGAGUCCGUGAGGACGAAACAG [G10C C11G] | 1.17
AACGGAUGUGCUUUCCGGUCCGAUGAGUCCGUGAGGACGAAACAG [C2A U21C] | 0.402
ACCGUAUGUGCUUUACGGUCUGAUGAGUCCGUGAGGACGAAACAG [G5U C15A] | 1.43
ACCGGAAGUGCUUUCCGGUCUGAUGAGUCCGUGAGGACGAAACGG [U7A A44G] | 1.46
ACCGGAUGUGCUUUGCGGUCUGAUGAGUCCGUGAGGACGUAACAG [C15G A40U] | 0.358
ACCGGAUGUGUUUUCCGGUCUGAUGAGUCCGUGAGGACGACACAG [C11U A41C] | 0.337
ACCGGAUGUGCUUUCCGGUCUCAUGAGUCCGUGAAGACGAAACAG [G22C G35A] | 0.337
ACCCGACGUGCUUUCCGGUCUGAUGAGUCCGUGAGGACGAAACAG [G4C U7C] | 0.353
ACCGGAUGUGCUUUCCGGUCUGAUGAGUCCGUGCGGACGAACCAG [A34C A42C] | 0.397
ACAGGAUGUGCUUUCCGGUCUGAGGAGUCCGUGAGGACGAAACAG [C3A U24G] | 0.574
ACCGGGUGUGCUUUCCGGUCUGAUGACUCCGUGAGGACGAAACAG [A6G G27C] | 0.45
ACCGGAUGUUCUUUCAGGUCUGAUGAGUCCGUGAGGACGAAACAG [G10U C16A] | 1.06

Reference: the RNAGym collection of RNA variant scans (doi:10.7554/elife.80360)
